Reference: publication PMC4585926, “A RANKL mutant used as an inter-species vaccine for efficient immunotherapy of osteoporosis” (Scientific Reports, 2015)
Substitutions are numbered along the chain they refer to.

T1: human RANKL ectodomain (residues 158-317) Arg223Ala (human, UniProt O14788 158-317, Arg223Ala)
T1 sequence: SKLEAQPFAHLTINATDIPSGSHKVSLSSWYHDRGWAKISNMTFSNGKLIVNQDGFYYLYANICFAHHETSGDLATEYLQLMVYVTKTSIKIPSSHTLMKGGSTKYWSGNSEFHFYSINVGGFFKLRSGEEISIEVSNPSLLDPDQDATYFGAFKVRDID

T2: human RANKL ectodomain (residues 158-317) Arg223Ala plus Asp300Ala (human, UniProt O14788 158-317, Arg223Ala | Asp300Ala)
T2 sequence: T1 sequence with D143A

T3: human RANKL ectodomain (residues 158-317) Asp300Ala (human, UniProt O14788 158-317, Asp300Ala)
T3 sequence: T1 sequence with A66R, D143A

T4: mouse RANK extracellular domain (mouse, UniProt O35305 31-214)
T4 construct: RANK, mouse, extracellular domain (plasmid pET28a-mRANK); also called mRANK; mRANK ectodomain; source: plasmid pET28a-mRANK
T4 sequence (looked up): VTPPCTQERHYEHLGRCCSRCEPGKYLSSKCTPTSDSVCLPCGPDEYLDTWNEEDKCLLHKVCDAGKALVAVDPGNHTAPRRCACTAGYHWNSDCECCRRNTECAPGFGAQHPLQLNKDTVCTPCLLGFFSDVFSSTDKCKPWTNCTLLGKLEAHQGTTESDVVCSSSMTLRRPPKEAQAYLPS

B1: mouse RANK extracellular domain (receptor)
chain: T4 sequence (looked up)
B2: human RANKL ectodomain (residues 158-317), wild type (ligand, UniProt O14788 158-317, looked up)
chain: T1 sequence with A66R
notes: RANKL, human, ectodomain, residues 158-317 (plasmid pGEX-6P-hRANKL); Homotrimer in the crystal structure; also called hRANKL; wild-type hRANKL; source: E. coli BL21, purified (glutathione-Sepharose, PreScission cleavage, Superdex 200); not shown: GST, N-terminal, cleaved
B3: human RANKL ectodomain (residues 158-317) Arg223Ala (ligand, UniProt O14788 158-317, looked up)
chain: T1 sequence
notes: RANKL, human, ectodomain, residues 158-317, with Arg223Ala (mutant of pGEX-6P-hRANKL); source: E. coli BL21, purified (glutathione-Sepharose, PreScission cleavage, Superdex 200); not shown: GST, N-terminal, cleaved
B4: human RANKL ectodomain (residues 158-317) Arg223Ala plus Asp300Ala (ligand, UniProt O14788 158-317, looked up)
chain: T1 sequence with D143A
notes: RANKL, human, ectodomain, residues 158-317, with Arg223Ala and Asp300Ala (mutant of pGEX-6P-hRANKL); Trimeric by chemical cross-linking; also called hRANKL double-site mutant; source: E. coli BL21, purified (glutathione-Sepharose, PreScission cleavage, Superdex 200); not shown: GST, N-terminal, cleaved
B5: human RANKL ectodomain (residues 158-317) Asp300Ala (ligand, UniProt O14788 158-317, looked up)
chain: T1 sequence with A66R, D143A
notes: RANKL, human, ectodomain, residues 158-317, with Asp300Ala (mutant of pGEX-6P-hRANKL); also called 300 M; source: E. coli BL21, purified (glutathione-Sepharose, PreScission cleavage, Superdex 200); not shown: GST, N-terminal, cleaved
B6: mouse RANKL (ligand)
chain: KPEAQPFAHLTINAASIPSGSHKVTLSSWYHDRGWAKISNMTLSNGKLRVNQDGFYYLYANICFRHHETSGSVPTDYLQLMVYVVKTSIKIPSSHNLMKGGSTKNWSGNSEFHFYSINVGGFFKLRAGEEISIQVSNPSLLDPDQDATYFGAFKVQDID
notes: RANKL, mouse; the text names the ectodomain in general as residues 161-316 of mRANKL; also called mRANKL

Experiments:
[1] = molecular target: T1, human RANKL ectodomain (residues …); test: SPR
[2] = molecular target: T2, human RANKL ectodomain (residues …); test: SPR
[3] = molecular target: T3, human RANKL ectodomain (residues …); test: SPR
[4] = molecular target: the molecule itself; test: crystal structure; hRANKL and mRANK mixed 1:1 in 0.1 M Tris pH 7.0, 10 mg/mL; sitting drop at 294 K, microseeded with crushed mRANKL-mRANK crystals; 2.8 Å, space group P63
[5] = molecular target: T4, mouse RANK extracellular domain; test: SPR; Biacore 3000; NTA sensor chip charged with 0.3 M NiSO4, mRANK (50 nM, 15 ul) loaded; hRANKL or mutants injected at 0, 0.47, 0.94, 1.88, 3.75, 7.5, 15 and 30 nM; BIAevaluation 4.1; details: both partners purified
[6] = molecular target: the molecule itself; test: cross-linking; DSS to protein 0:1, 5:1, 10:1 and 20:1, in PBS pH 7.3, on ice 1 hour, stopped with 50 mM Tris pH 7.5; SDS-PAGE

Binder	Kd [5]	fold decrease in affinity against wild-type hRANKL [5]	also measured
B1			Kd [1]: 10.7 nM; Kd [2]: 39.4 nM; Kd [3]: 2.15 nM
B2	0.156 nM		stoichiometry N [4]: 3
B3		20 fold	
B4		260 fold	stoichiometry N [6]: 3
B5		70 fold	
B6	0.068 nM		
